Test results published in patent US20230382984A1, “TRABD PROTEIN, AND MONOCLONAL ANTIBODY THEREOF, AND ISOLATION, AMPLIFICATION AND USE THEREOF” (priority 2022, published 2023).

Key:
TRABD2A protein [1] = target: T1, TRABD2A protein (Homo sapiens, UniProt Q86V40); settings: different view; metal ions; cited from earlier work
T1 sequence (Q86V40 22-480): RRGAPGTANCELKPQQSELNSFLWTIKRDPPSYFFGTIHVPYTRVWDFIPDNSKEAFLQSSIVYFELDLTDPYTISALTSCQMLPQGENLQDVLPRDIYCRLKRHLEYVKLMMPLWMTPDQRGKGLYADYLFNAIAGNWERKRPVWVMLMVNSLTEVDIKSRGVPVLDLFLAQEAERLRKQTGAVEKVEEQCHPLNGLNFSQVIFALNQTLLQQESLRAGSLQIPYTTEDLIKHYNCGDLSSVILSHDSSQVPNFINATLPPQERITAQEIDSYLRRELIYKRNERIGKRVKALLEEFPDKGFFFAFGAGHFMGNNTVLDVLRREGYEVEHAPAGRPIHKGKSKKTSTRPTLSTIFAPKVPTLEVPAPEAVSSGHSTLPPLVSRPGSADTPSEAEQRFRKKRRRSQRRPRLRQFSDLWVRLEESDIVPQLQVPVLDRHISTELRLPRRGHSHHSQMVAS

[2] = target: T2, TRABD2A metalloprotease on CD8^+ T cells (Homo sapiens, UniProt Q86V40); assay: Killing activity of CD8+ T cells on target cells after metal cofactor intervention of TRABD2A; format: cell-based; settings: metal cations at different concentrations acting on CD8+ T cells; target cells CEM.T2 and MGC; FIG. 4A
T2 construct: action of metal ions Mn^2+, Co^2+ and Ni^2+ on TRABD2A metalloprotease on CD8^+ T cells; endogenous in cells
T2 sequence (Q86V40 22-480): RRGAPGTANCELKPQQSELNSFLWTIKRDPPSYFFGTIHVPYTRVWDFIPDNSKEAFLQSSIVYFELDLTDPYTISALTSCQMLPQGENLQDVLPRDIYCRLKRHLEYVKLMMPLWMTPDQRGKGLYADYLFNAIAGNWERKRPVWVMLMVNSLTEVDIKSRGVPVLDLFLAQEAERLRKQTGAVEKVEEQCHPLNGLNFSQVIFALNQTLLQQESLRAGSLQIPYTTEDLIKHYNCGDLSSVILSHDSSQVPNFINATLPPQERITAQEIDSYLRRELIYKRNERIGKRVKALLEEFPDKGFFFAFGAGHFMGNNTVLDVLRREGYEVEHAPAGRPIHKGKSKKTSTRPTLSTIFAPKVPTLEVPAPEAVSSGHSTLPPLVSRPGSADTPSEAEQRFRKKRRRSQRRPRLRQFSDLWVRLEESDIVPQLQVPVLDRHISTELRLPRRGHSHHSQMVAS
Text: Since TRABD2A is a metalloprotease and its activity is affected by metal ions, and the metal ion Mn^2+ having an accelerating effect on TRABD2A metalloprotease activity and metal ions Co^2+ and Ni^2+ having an inhibiting effect were examined. The effect of the TRABD2A protein on CD8^+ T cells was observed by the action of metal ions Mn^2+, Co^2+ and Ni^2+ on TRABD2A metalloprotease on CD8^+ T cells.

TRABD protease = settings: early study; metal ions; cited from earlier work
[3] = test system: CD8^+ T cells and target cells; assay: CCK8 and flow cytometry detection of toxic effect of metal cations; settings: concentration of 20 μM
Text: FIG. 4A show the effect on the target cell killing ability of CD8^+ T cells after metal cofactor intervention of TRABD2A; • A: detection of the killing activity of the CD8^+ T cells on target cells CEM.T2 when metal cations Co^2+, Ni^2+ and Mn^2+ at different concentrations act on CD8^+ T cells; • B: detection of the killing activity of the CD8^+ T cells on target cells MGC when metal cations Co^2+, Ni^2+ and Mn^2+ at different concentrations act on CD8^+ T cells; • C: CCK8 and flow cytometry detection of the toxic effect of metal cations Co^2+, Ni^2+ and Mn^2+ at different concentrations on target cells.

[4] = target: T3, TRABD2B metalloprotease on CD8^+ T cells (Homo sapiens, UniProt A6NFA1); assay: Killing activity of CD8+ T cells on target cells after metal cofactor intervention with TRABD2B; format: cell-based; settings: Ni2+ at different concentrations; target cells CEM.T2; FIG. 4B
T3 construct: action of metal ion Ni^2+ upon TRABD2B metalloprotease on CD8^+ T cells; endogenous in cells
T3 sequence (A6NFA1 20-486): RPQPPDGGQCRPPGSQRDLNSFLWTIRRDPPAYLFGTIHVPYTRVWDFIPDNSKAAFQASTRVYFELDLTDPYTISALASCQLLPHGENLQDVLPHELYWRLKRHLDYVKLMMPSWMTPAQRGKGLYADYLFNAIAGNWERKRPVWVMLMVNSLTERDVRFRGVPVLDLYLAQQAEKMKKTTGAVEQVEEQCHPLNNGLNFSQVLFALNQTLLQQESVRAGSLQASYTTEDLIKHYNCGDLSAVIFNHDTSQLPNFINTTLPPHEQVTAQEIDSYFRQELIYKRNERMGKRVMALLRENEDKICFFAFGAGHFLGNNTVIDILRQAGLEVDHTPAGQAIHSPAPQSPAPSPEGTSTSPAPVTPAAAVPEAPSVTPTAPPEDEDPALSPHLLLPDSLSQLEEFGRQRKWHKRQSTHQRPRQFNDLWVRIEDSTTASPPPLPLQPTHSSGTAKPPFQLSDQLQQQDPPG
Text: Since TRABD2B is a metalloprotease whose activity is affected by metal ions, metal ion Mn^2+ that promotes the TRABD2B metalloprotease activity was examined. The effect of the TRABD2B protein on CD8^+ T cells was observed by the action of metal ion Ni^2+ upon TRABD2B metalloprotease on CD8^+ T cells.

target cells = assay: CCK8 and flow cytometry detection of toxic effect of Ni2+ on target cells; format: cell-based; settings: concentration 20 μM
[5] = target: TRABD2A protein (antigen) (UniProt Q86V40); assay: ELISA; negative control; fit value beyond top concentration
[6] = target: T4, TRABD2A protein on CD8^+ T cells (Homo sapiens, UniProt Q86V40); assay: Killing of target cells by CD8+ T cells after intervention with TRABD2A antibody; format: cell-based; settings: antibody removed or unremoved after incubation; FIG. 7A
T4 construct: action of metal ions Mn^2+, Co^2+ and Ni^2+ on TRABD2A metalloprotease on CD8^+ T cells; endogenous in cells
T4 sequence (Q86V40 22-480): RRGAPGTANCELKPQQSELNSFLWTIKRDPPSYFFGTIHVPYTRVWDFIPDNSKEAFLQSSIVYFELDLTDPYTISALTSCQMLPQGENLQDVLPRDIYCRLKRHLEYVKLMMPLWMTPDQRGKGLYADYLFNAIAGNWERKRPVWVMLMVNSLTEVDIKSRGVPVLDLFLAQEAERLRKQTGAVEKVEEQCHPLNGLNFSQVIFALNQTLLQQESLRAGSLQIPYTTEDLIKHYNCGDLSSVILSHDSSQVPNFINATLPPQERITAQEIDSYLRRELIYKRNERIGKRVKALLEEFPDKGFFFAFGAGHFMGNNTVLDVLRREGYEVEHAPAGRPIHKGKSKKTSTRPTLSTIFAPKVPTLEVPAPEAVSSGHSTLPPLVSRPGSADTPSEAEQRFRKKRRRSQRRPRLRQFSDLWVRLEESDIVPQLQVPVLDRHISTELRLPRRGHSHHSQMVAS
Protocol: Two modes were adopted for intervening with TRABD2A protein on CD8^+ T cells, and the difference of the two modes was that the CD8^+ T cells, after incubation with the antibody, kill the target cells with residual blocking antibody removed or unremoved.

TRABD2A protein [7] = target: T1, TRABD2A protein; assay: Binding of synthesized TRABD2A antibodies to antigen; settings: detection with antigen; FIG. 6A
Text: Three antibodies anti-TRABD2A-1 (amino acid sequences of heavy and light chains are set forth in SEQ ID NOs: 7 and 8, respectively), anti-TRABD2A-2 (amino acid sequences of heavy and light chains are set forth in SEQ ID NOs: 13 and 14, respectively) and negative control (amino acid sequences of heavy and light chains are set forth in SEQ ID NOs: 19 and 20, respectively) synthesized in Example 5-1 were used. […] After concentration of the antibodies, the protein concentrations were measure by A280, and the concentrations of anti-TRABD2A-1, anti-TRABD2A-2 and negative control were 0.92 mg/mL, 1.6 mg/mL and 2.98 mg/mL, respectively. The proteins were snap frozen in liquid nitrogen and stored at −80° C. for later use.

[8] = target: T5, TRABD2A protein (antigen) (UniProt Q86V40 22-480); assay: ELISA
T5 chain: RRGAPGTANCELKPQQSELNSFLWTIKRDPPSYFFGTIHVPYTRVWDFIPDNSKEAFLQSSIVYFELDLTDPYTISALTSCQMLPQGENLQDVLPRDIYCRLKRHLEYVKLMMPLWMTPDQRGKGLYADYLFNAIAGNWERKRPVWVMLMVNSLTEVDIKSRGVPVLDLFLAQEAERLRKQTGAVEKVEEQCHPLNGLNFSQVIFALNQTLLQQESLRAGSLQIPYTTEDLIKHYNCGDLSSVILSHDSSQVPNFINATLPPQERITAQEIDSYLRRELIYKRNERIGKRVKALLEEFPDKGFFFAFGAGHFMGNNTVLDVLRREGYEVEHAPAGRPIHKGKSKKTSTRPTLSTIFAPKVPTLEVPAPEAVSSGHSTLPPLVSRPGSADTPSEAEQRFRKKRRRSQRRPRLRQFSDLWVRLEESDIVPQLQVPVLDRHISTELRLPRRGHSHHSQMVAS

TRABD2A protein [9] = target: T1, TRABD2A protein; assay: Binding of anti-TRABD2A/2B bispecific antibody to antigen TRABD2A protein; settings: detection with antigen; FIG. 6C
Protocol: (§1) The bispecific antibody (amino acid sequences of heavy and light chains are set forth in SEQ IN NOs: 29 and 30, respectively) and negative control (amino acid sequences of heavy and light chains are set forth in SEQ IN NOs: 33 and 24, respectively) antibody synthesized in Example 5-3 were used. […] After the antibodies were concentrated, the protein concentration of anti-TRABD2A/2B was 1.23 mg/mL and that of the negative control was 1.02 mg/mL, as measured by A280. The proteins were snap frozen in liquid nitrogen and stored at −80° C. for later use.

TRABD2B protein = target: T6, TRABD2B protein (Homo sapiens, UniProt A6NFA1); assay: Binding of anti-TRABD2A/2B bispecific antibody to antigen TRABD2B protein; settings: detection with antigen; FIG. 6C
T6 sequence (A6NFA1 20-486): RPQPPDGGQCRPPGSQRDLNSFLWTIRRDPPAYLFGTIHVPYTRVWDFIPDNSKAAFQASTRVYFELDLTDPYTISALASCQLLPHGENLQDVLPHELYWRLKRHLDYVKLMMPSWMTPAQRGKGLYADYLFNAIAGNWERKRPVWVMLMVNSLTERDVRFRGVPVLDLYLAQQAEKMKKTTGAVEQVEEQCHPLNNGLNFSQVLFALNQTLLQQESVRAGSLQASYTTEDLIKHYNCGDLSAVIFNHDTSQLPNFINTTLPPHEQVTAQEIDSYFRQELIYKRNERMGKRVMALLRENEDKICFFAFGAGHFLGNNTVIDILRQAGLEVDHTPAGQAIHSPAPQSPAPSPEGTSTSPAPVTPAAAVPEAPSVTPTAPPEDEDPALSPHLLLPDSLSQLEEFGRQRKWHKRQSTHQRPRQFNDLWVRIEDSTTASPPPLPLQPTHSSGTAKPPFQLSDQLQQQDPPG
Protocol: as §1

[10] = test system: TRABD2A and TRABD2B proteins; assay: Killing of target cells by CD8+ T cells under intervention with bispecific anti-TRABD2A/2B antibody; format: cell-based, human; settings: FIG. 7C
Text: The effect of the bispecific antibody blocking both TRABD2A and TRABD2B proteins on target cell killing ability of CD8^+ T cells were examined.

Molecule: [Mg+2] [Mg^2+]
- activity of the TRABD2A protein (TRABD2A protein [1]): independent

Molecule: [Mn+2] [Mn^2+]
- tumor killing ability of CD8^+ T cells [2]: not enhanced
- TRABD protease activity (TRABD protease): increase

Molecule: [Ni+2] [Ni^2+]
- activity of the TRABD2A protein (TRABD2A protein [1]): inhibited
- toxic effect on CD8^+ T cells and target cells [3]: little toxic effect
- tumor killing ability of CD8^+ T cells [4]: enhanced
- tumor killing ability of CD8^+ T cells [2]: enhanced
- toxic effect on cells (target cells): little toxic effect
- TRABD protease activity (TRABD protease): opposite effect

Molecule: negative control antibody of Example 6-1
- EC50 [5]: 14.1 µg/mL

B1: anti-TRABD2A-1 (antibody)
heavy: DASTLQRGVPSRFGGSGQMTQSPSSASTLQRGVPSRFGGSGSQSINRASTLQRGVPSRFGGSGGKAPKLVIYAASSLQSGVPSRFSGSGSGTDFTLTISSLQ
light: ASTLQRGVISWVRASTLQRGVPSRFGGSGPIFGTANYAQKFQGRVTITADESTSTAYMELSSLRSEDTAVYYASTLQRGVPSRFGGSGYYWGQGTPVTVSS
- effect on target cell killing ability of CD8^+ T cells [6]: enhanced effect
- binding to antigen (TRABD2A protein [7]): high binding efficiency
- EC50 [8]: 0.306 µg/mL

B2: anti-TRABD2A-2 (antibody)
heavy: APKLLIYAASSLRSGVPSRFSGSTCRASQSINRYLNWYQAPKLLIYAASSLRSGVPSRFSGSYAASSLQSGVPSRFSGSGSGTDFTLTISSLQPEDFATYYCQQGGTKV
light: YYWGQGTPVTVSKKPGSSVKVSAPKLLIYAASSLRSGVPSRFSGSGTFSSYAISWVRQAPGQGLEWMGGIIPIFGTANYAQKFQGRVTITADESTSTAYMELSSLRSEDTA
- effect on target cell killing ability of CD8^+ T cells [6]: enhanced effect
- binding to antigen (TRABD2A protein [7]): high binding efficiency
- EC50 [8]: 0.128 µg/mL

B3: anti-TRABD2A/2B bispecific antibody: bispecific antibody recognizing both TRABD2A and TRABD2B; heavy and light chains SEQ ID NOs: 29 and 30 (antibody)
heavy: YQSQSINRYLNWYQQKPGKSNYLNWAPKLVIYAASSLQYCQQYNFYPLTFGYLNWYQSSGTYLNWYQQRPGKAPSSGTYQRPGKAPGGTKVSNYLNWYQSN
light: YAQKFQGRVTITVKVSCKASGGTFSSYAISWVRQAPGQGLEWMGQVQLVQSGAEVKKPGSSGIIPIFGTANADESTSTAYMELSSLRSEDTAVYYCARTRGYS
- binding to TRABD2A (TRABD2A protein [9]): capable of binding
- binding to TRABD2B (TRABD2B protein): capable of binding
- effect on the killing of target cells by CD8^+ T cells [10]: enhancing effect
